Consider one molecule from doi:10.1101/2022.01.13.476221.

The target in assay [1] is T1, unphosphorylated human MST2-FL (residues 1-484) (human) (UniProt Q13188).
T1 sequence: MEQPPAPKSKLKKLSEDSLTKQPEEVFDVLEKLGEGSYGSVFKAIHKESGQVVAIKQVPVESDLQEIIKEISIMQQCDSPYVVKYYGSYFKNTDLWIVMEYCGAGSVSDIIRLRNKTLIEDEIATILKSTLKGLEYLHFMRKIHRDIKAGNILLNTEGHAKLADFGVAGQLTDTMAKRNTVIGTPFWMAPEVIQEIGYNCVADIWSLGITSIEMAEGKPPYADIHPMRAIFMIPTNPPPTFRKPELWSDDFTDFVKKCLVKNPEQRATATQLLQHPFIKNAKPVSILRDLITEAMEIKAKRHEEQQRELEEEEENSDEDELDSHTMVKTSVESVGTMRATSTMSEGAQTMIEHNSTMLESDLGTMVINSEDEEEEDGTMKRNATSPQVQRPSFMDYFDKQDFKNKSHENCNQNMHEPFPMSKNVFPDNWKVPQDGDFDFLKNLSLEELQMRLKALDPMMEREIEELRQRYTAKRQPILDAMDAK

Assay [2] deals with T2, unphosphorylated human MST2-K (kinase domain, residues 1-314) (human) (UniProt Q13188).
T2 sequence: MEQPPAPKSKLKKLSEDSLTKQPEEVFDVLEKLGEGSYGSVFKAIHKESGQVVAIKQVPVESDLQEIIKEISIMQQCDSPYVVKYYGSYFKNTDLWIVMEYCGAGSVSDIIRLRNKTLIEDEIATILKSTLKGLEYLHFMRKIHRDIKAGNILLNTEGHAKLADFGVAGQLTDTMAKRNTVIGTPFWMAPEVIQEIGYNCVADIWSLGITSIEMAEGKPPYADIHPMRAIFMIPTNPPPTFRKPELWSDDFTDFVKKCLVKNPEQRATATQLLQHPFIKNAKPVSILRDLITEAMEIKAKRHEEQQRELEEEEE

For assay [3], the target named is T3, unphosphorylated human MST2-KL (kinase-linker, residues 1-433) (human) (UniProt Q13188).
T3 sequence: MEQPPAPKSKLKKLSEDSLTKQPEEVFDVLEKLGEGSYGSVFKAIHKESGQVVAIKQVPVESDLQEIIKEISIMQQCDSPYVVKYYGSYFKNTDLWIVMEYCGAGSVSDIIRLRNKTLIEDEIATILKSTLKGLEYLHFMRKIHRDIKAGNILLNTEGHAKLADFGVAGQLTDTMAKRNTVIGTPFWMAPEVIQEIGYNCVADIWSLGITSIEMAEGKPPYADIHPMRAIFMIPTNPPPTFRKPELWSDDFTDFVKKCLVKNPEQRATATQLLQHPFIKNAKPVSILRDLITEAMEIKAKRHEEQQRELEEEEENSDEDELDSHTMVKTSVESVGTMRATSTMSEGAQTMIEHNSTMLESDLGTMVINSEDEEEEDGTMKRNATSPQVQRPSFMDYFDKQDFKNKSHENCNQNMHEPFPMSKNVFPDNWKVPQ

* marks the point of attachment. Biotin = O=C1N[C@H]2[C@H](CS[C@H]2CCCCC(=O)*)N1

B1: biotinylated peptide substrate Biotin-…-NH2 (peptide)
peptide: Biotin-GGGENWYNTLKRKK-NH2
SMILES: CC(C)C[C@H](NC(=O)[C@@H](NC(=O)[C@H](CC(N)=O)NC(=O)[C@H](Cc1ccc(O)cc1)NC(=O)[C@H](Cc1c[nH]c2ccccc12)NC(=O)[C@H](CC(N)=O)NC(=O)[C@H](CCC(=O)O)NC(=O)CNC(=O)CNC(=O)CNC(=O)CCCC[C@@H]1SC[C@@H]2NC(=O)N[C@@H]21)[C@@H](C)O)C(=O)N[C@@H](CCCCN)C(=O)N[C@@H](CCCNC(=N)N)C(=O)N[C@@H](CCCCN)C(=O)N[C@@H](CCCCN)C(N)=O
Take B1: the Km^app (peptide), radiometric kinase assay, steady state, 30°C in assay [1] was 139 µM; in assay [2], 625 µM; in assay [3] it was 804 µM.
